# Experimental data: paper PMC8001533, “A Tryptophan ‘Gate’ in the CRISPR-Cas3 Nuclease Controls ssDNA Entry into the Nuclease Site, That When Removed Results in Nuclease Hyperactivity”
# B1: DNA fork MW12/MW14 (mixed)
# DNA 1: GTCGGATCCTCTAGACAGCTCCATGATCACTGGCACTGGTAGAATTCGGC
# DNA 2: CAACGTCATAGACGATTACATTGCTACATGGAGCTGTCTAGAGGATCCGA
# Experiments:
# [1] = biological target: T1, Cas3W406A (Escherichia coli K-12 MG1655, UniProt P38036 1-888, W406A); experiment: EMSA; not more stable or efficient than wild type; EMSA: 20 nM fork DNA, 50 mM Tris-HCl pH 7.5, 100 mM NaCl, 0.1 mg/mL BSA, 20 mM DTT, room temperature, 1 h; conditions: protein: recombinant; tags: (His)6-MBP or His6 (pIIB39 is the His6 pAH4 version); label: 5'-Cy5 on strand 1 (MW12); fork 1:2; as printed strand 1 nt 2-25 pair with strand 2 nt 27-50
# T1 sequence: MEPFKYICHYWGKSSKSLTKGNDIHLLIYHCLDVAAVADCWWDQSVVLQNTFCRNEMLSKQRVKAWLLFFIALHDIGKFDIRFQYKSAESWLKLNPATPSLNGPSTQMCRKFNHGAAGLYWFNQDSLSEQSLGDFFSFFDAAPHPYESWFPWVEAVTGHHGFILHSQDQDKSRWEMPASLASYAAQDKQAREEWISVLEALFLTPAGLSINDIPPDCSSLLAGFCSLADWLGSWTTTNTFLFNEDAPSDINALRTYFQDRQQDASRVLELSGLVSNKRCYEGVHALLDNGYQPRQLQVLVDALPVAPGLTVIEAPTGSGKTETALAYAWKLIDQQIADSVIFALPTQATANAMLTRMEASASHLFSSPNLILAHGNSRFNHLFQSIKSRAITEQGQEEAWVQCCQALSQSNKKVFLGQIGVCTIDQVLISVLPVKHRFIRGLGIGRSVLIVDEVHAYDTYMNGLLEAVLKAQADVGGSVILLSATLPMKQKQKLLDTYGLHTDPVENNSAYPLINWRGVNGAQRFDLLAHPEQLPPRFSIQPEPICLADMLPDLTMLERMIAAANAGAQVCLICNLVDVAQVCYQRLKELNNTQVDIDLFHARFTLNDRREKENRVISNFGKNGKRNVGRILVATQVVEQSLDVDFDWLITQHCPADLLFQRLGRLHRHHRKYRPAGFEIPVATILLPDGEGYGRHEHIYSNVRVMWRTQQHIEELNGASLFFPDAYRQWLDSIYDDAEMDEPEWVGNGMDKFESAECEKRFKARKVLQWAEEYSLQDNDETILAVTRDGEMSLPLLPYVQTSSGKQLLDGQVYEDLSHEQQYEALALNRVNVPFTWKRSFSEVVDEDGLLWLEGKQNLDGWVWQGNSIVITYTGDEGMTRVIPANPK
# [2] = biological target: T2, Cas3 wild type (Escherichia coli K-12 MG1655, UniProt P38036 1-888); experiment: EMSA; EMSA: 20 nM fork DNA, 50 mM Tris-HCl pH 7.5, 100 mM NaCl, 0.1 mg/mL BSA, 20 mM DTT, room temperature, 1 h; conditions: protein: recombinant; tags: (His)6-MBP N-terminal (pCas3); a His6-only construct (pAH4) also exists; label: 5'-Cy5 on strand 1 (MW12); fork 1:2; as printed strand 1 nt 2-25 pair with strand 2 nt 27-50
# T2 sequence: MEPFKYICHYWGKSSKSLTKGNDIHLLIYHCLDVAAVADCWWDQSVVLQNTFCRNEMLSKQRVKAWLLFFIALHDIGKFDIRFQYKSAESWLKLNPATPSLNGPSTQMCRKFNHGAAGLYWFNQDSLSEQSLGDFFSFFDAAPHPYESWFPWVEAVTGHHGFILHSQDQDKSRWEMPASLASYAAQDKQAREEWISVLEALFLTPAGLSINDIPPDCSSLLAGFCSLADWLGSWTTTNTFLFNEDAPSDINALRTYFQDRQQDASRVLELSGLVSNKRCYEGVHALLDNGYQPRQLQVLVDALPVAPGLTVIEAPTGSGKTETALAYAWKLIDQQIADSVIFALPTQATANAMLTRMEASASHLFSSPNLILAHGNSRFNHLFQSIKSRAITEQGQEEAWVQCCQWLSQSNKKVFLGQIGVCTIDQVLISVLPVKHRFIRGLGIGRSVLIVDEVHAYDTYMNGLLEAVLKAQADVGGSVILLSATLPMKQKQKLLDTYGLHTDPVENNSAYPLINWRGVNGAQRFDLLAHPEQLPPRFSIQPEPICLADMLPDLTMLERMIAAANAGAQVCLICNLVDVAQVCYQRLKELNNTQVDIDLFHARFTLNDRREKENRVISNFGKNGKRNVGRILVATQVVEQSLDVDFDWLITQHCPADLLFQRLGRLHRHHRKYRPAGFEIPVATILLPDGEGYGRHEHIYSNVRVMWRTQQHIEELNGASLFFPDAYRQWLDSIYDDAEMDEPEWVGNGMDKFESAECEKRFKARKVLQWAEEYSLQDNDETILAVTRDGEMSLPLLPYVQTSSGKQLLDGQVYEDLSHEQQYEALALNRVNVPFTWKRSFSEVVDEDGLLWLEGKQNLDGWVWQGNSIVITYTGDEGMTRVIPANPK
binder,measurement,setting,value
B1,binding result,[1],binds
same,binding result,[2],binds
